{"source": "the supplement of paper PMC12764529", "key": {"[1]": {"test": "folding stability dG unfold (combined trypsin and chymotrypsin); higher = more stable", "procedure,_shortened": "(§1)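 Unfolding free energy was derived, per protease or combined, by relating Bayesian-fitted K50 values from sequencing counts to a sequence-predicted unfolded-state K50 and a shared folded-state K50. The underlying digests exposed cysteine-free mini-proteins under 80 residues, in a PA-tagged cDNA display construct, to trypsin and chymotrypsin at 11 threefold-diluted concentrations and to a no-protease condition. A filter kept only designs with AlphaFold2 dimer inter-PAE above 15.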"}, "[2]": {"test": "folding stability dG unfold from chymotrypsin proteolysis; higher = more stable", "procedure,_shortened": "as §1"}, "[3]": {"test": "folding stability dG unfold from trypsin proteolysis; higher = more stable", "procedure,_shortened": "as §1"}}, "note": "± gives the half width of the 95% confidence interval.", "data": [{"sequence": "SAGMPGKIRVEVEAEISEDNVIKLKIKIYGPDGELIDEIEAEIYLPVPPLSPSEGGGLIEAGNPELAEGSAG [r5_944_TrMRF]", "values": [{"measurement": "folding stability dG unfold", "setting": "[1]", "value": "3.13 ± 0.13", "unit": "kcal/mol"}, {"measurement": "folding stability dG unfold", "setting": "[2]", "value": "3.38 ± 0.092", "unit": "kcal/mol"}, {"measurement": "folding stability dG unfold", "setting": "[3]", "value": "2.54 ± 0.2", "unit": "kcal/mol"}]}, {"sequence": "SAGGSAGGSAIWIPSPEAADEIMDILAKKNGYKINIEPIGQDEDGGMVYEIEIVPPGQPLTSAGGSAGGSAG [r3_59_TrROS]", "values": [{"measurement": "folding stability dG unfold", "setting": "[1]", "value": "0.484 ± 0.22", "unit": "kcal/mol"}, {"measurement": "folding stability dG unfold", "setting": "[2]", "value": "0.397 ± 0.16", "unit": "kcal/mol"}, {"measurement": "folding stability dG unfold", "setting": "[3]", "value": "0.152 ± 0.066", "unit": "kcal/mol"}]}, {"sequence": "SAGGSAGGSAGGSGSKEPKYYYRVVVEDDGNPVVRTYAPDEPLPAPANLKVFPFLADEESAGGSAGGSAGGS [r4_107_TrMRF]", "values": [{"measurement": "folding stability dG unfold", "setting": "[1]", "value": "0.452 ± 0.25", "unit": "kcal/mol"}, {"measurement": "folding stability dG unfold", "setting": "[2]", "value": "0.857 ± 0.19", "unit": "kcal/mol"}, {"measurement": "folding stability dG unfold", "setting": "[3]", "value": "-0.421 ± 0.81", "unit": "kcal/mol"}]}, {"sequence": "SAGGMSLEHVTEIVETVTHPDGTKTVTIRLSDPAIWAGEDPATAAALAEAVQAEHADEGVAVTVVGAPSAGG [r13_243_JUSTAS]", "values": [{"measurement": "folding stability dG unfold", "setting": "[1]", "value": "0.585 ± 0.15", "unit": "kcal/mol"}, {"measurement": "folding stability dG unfold", "setting": "[2]", "value": "1.05 ± 0.042", "unit": "kcal/mol"}, {"measurement": "folding stability dG unfold", "setting": "[3]", "value": "-0.642 ± 0.26", "unit": "kcal/mol"}]}, {"sequence": "SAGGSAKRKVEIEIVLSAEELEEAIKEGKPLSEELQKRIEELLKKAEEAGIDEVRIRIVPPGLPEPSAGGSA [r15_304_TrROS_Hall]", "values": [{"measurement": "folding stability dG unfold", "setting": "[1]", "value": "1.16 ± 0.12", "unit": "kcal/mol"}, {"measurement": "folding stability dG unfold", "setting": "[2]", "value": "1.22 ± 0.036", "unit": "kcal/mol"}, {"measurement": "folding stability dG unfold", "setting": "[3]", "value": "0.89 ± 0.089", "unit": "kcal/mol"}]}, {"sequence": "SAGGKKTFKVTLTLELKVERDEETGELKTETLTLTLTIEAESEEEAEKALKELLEKLELSPELKKALSAGGS [r16_40_TrROS_Hall]", "values": [{"measurement": "folding stability dG unfold", "setting": "[1]", "value": "3.4 ± 0.097", "unit": "kcal/mol"}, {"measurement": "folding stability dG unfold", "setting": "[2]", "value": "3.76 ± 0.064", "unit": "kcal/mol"}, {"measurement": "folding stability dG unfold", "setting": "[3]", "value": "2.17 ± 0.082", "unit": "kcal/mol"}]}, {"sequence": "SAGGSAGGMKTTTYTFPGTLEEAKALAEELVAALPPHAKEVTVEVTPDPATGTVTVTITVKELASAGGSAGG [r6_164_JUSTAS]", "values": [{"measurement": "folding stability dG unfold", "setting": "[1]", "value": "3.46 ± 0.13", "unit": "kcal/mol"}, {"measurement": "folding stability dG unfold", "setting": "[2]", "value": "3.63 ± 0.064", "unit": "kcal/mol"}, {"measurement": "folding stability dG unfold", "setting": "[3]", "value": "3.17 ± 0.19", "unit": "kcal/mol"}]}, {"sequence": "SAGGSAGGGSFTLTEEPGGVLTITTPDKTLTVNLEGVTPDPNSDTTFSFTLSLDPDDSASVTSSSAGGSAGG [r6_202_JUSTAS]", "values": [{"measurement": "folding stability dG unfold", "setting": "[1]", "value": "1.47 ± 0.1", "unit": "kcal/mol"}, {"measurement": "folding stability dG unfold", "setting": "[2]", "value": "1.43 ± 0.091", "unit": "kcal/mol"}, {"measurement": "folding stability dG unfold", "setting": "[3]", "value": "1.44 ± 0.023", "unit": "kcal/mol"}]}, {"sequence": "SAGMTTTLTKGEDGVTLTFDLPGQSVTLTVPVPPDVEVTTSFPATGTTITGTPVGDTLTITVTVPAPASAGG [r19_384_JUSTAS]", "values": [{"measurement": "folding stability dG unfold", "setting": "[1]", "value": "1.69 ± 0.038", "unit": "kcal/mol"}, {"measurement": "folding stability dG unfold", "setting": "[2]", "value": "1.52 ± 0.041", "unit": "kcal/mol"}, {"measurement": "folding stability dG unfold", "setting": "[3]", "value": "1.78 ± 0.028", "unit": "kcal/mol"}]}, {"sequence": "SAGGNINDIAKKLGLPPGGMIMIKDFSLEWHRMPMRVPEEDNDKPKEEKEVPMPMYKAEIKISLFPADSAGG [r13_482_TrROS]", "values": [{"measurement": "folding stability dG unfold", "setting": "[1]", "value": "1.52 ± 0.22", "unit": "kcal/mol"}, {"measurement": "folding stability dG unfold", "setting": "[2]", "value": "2 ± 0.13", "unit": "kcal/mol"}, {"measurement": "folding stability dG unfold", "setting": "[3]", "value": "0.955 ± 0.056", "unit": "kcal/mol"}]}, {"sequence": "MKIIDVVPTPDGLIVVIKVVFPNTEEAYVSASDLDKLIKEIFERFGVKPEYLKITDIKAFSPEELKEFLEES [r1_119_TrMRF]", "values": [{"measurement": "folding stability dG unfold", "setting": "[1]", "value": "2.78 ± 0.075", "unit": "kcal/mol"}, {"measurement": "folding stability dG unfold", "setting": "[2]", "value": "2.98 ± 0.031", "unit": "kcal/mol"}, {"measurement": "folding stability dG unfold", "setting": "[3]", "value": "2.37 ± 0.072", "unit": "kcal/mol"}]}, {"sequence": "SMKISSFTLAPGGEAVIELTFESGETRRVRLTGLTSKAEVEAEAKRLQEELEKGNPRPIKTVTVSPAPPASA [r9_1135_JUSTAS]", "values": [{"measurement": "folding stability dG unfold", "setting": "[1]", "value": "1 ± 0.094", "unit": "kcal/mol"}, {"measurement": "folding stability dG unfold", "setting": "[2]", "value": "0.768 ± 0.24", "unit": "kcal/mol"}, {"measurement": "folding stability dG unfold", "setting": "[3]", "value": "1.14 ± 0.064", "unit": "kcal/mol"}]}, {"sequence": "SAGGSAGGSAGPGVLILRRRFVRPRLIPNTGKLYYEEVELTTNLPIGPIPPNWLNNPNGVSAGGSAGGSAGG [r17_493_TrMRF]", "values": [{"measurement": "folding stability dG unfold", "setting": "[1]", "value": "0.0971 ± 0.14", "unit": "kcal/mol"}, {"measurement": "folding stability dG unfold", "setting": "[2]", "value": "0.0547 ± 0.11", "unit": "kcal/mol"}, {"measurement": "folding stability dG unfold", "setting": "[3]", "value": "-0.0517 ± 0.15", "unit": "kcal/mol"}]}, {"sequence": "SAGGMESTSIPLEFKFEGDEEKAKKKVEEEAKKIAEEKGIEIKIEVKFDPNKPTATVTILVKGKEVEESAGG [r13_845_JUSTAS]", "values": [{"measurement": "folding stability dG unfold", "setting": "[1]", "value": "-0.285 ± 0.22", "unit": "kcal/mol"}, {"measurement": "folding stability dG unfold", "setting": "[2]", "value": "-0.281 ± 0.25", "unit": "kcal/mol"}, {"measurement": "folding stability dG unfold", "setting": "[3]", "value": "-0.411 ± 0.058", "unit": "kcal/mol"}]}, {"sequence": "SAGGSAGGSAGMTFVITDKNGKETTISLEEAAKLLGIPVEEITEEELKEFLEKKVKTIEKISSAGGSAGGSA [r18_403_JUSTAS]", "values": [{"measurement": "folding stability dG unfold", "setting": "[1]", "value": "2.18 ± 0.17", "unit": "kcal/mol"}, {"measurement": "folding stability dG unfold", "setting": "[2]", "value": "2.6 ± 0.046", "unit": "kcal/mol"}, {"measurement": "folding stability dG unfold", "setting": "[3]", "value": "0.898 ± 0.074", "unit": "kcal/mol"}]}, {"sequence": "SAGGSAGGKIKVEIEYNGEKKEMTLDEIKALLKKNLPPNATIRVKKNGKTIPLKKVKVKKLKKKSAGGSAGG [r6_936_TrROS_Hall]", "values": [{"measurement": "folding stability dG unfold", "setting": "[1]", "value": "1.35 ± 0.18", "unit": "kcal/mol"}, {"measurement": "folding stability dG unfold", "setting": "[2]", "value": "1.65 ± 0.15", "unit": "kcal/mol"}, {"measurement": "folding stability dG unfold", "setting": "[3]", "value": "1.08 ± 0.069", "unit": "kcal/mol"}]}, {"sequence": "SAGGSAGGSAGKKIKLPKELKGKKIEVKEVEIEVEVNGKKYKFKAKIVKFDGKIIAIELESAGGSAGGSAGG [r11_21_TrROS_Hall]", "values": [{"measurement": "folding stability dG unfold", "setting": "[1]", "value": "2.98 ± 0.17", "unit": "kcal/mol"}, {"measurement": "folding stability dG unfold", "setting": "[2]", "value": "3.31 ± 0.055", "unit": "kcal/mol"}, {"measurement": "folding stability dG unfold", "setting": "[3]", "value": "1.36 ± 0.069", "unit": "kcal/mol"}]}, {"sequence": "SAGGSAGGSAGPPNVKLTFTIMIMEMKMEPPPDGNPKMEMVMVPIEIEITAPPGDEITAISAGGSAGGSAGG [r11_174_TrROS]", "values": [{"measurement": "folding stability dG unfold", "setting": "[1]", "value": "2.93 ± 0.39", "unit": "kcal/mol"}, {"measurement": "folding stability dG unfold", "setting": "[2]", "value": "4 ± 0.44", "unit": "kcal/mol"}, {"measurement": "folding stability dG unfold", "setting": "[3]", "value": "2.41 ± 0.2", "unit": "kcal/mol"}]}, {"sequence": "SAGGSAGGSAGGQLKLKLKVKVTTRVRDPATGKTYTVTEEVEVTVELEFPPPPLPPGFKSAGGSAGGSAGGS [r10_1026_TrROS_Hall]", "values": [{"measurement": "folding stability dG unfold", "setting": "[1]", "value": "3.64 ± 0.21", "unit": "kcal/mol"}, {"measurement": "folding stability dG unfold", "setting": "[2]", "value": "4.2 ± 0.17", "unit": "kcal/mol"}, {"measurement": "folding stability dG unfold", "setting": "[3]", "value": "2.7 ± 0.22", "unit": "kcal/mol"}]}, {"sequence": "SAGGKKPERVKITIMIPFDDPDKLRNFLRNHGFKVDEVEPNKEGMLAVEFEFPGYEIEIIIMDPGAMSAGGS [r16_170_TrROS]", "values": [{"measurement": "folding stability dG unfold", "setting": "[1]", "value": "3.35 ± 0.14", "unit": "kcal/mol"}, {"measurement": "folding stability dG unfold", "setting": "[2]", "value": "3.74 ± 0.087", "unit": "kcal/mol"}, {"measurement": "folding stability dG unfold", "setting": "[3]", "value": "2.83 ± 0.16", "unit": "kcal/mol"}]}, {"sequence": "SAGGKKIVLFVGPPELVEELKKAYPDLPFVPIPVEVLENPEPAAEIIKELKEKGYEVVVYNFPDLKESAGGS [r8_376_TrMRF]", "values": [{"measurement": "folding stability dG unfold", "setting": "[1]", "value": "2.21 ± 0.071", "unit": "kcal/mol"}, {"measurement": "folding stability dG unfold", "setting": "[2]", "value": "2.562 ± 0.021", "unit": "kcal/mol"}, {"measurement": "folding stability dG unfold", "setting": "[3]", "value": "1.37 ± 0.057", "unit": "kcal/mol"}]}]}
